Reference: article PMC12700175

Molecular target: Pyruvate kinase M2 (PKM2) of mouse retina (mouse (endogenous in retina)) (UniProt P52480)
Assay: cross-linking

stoichiometry N: 4
Substance: Pyruvate kinase M2 (PKM2) of mouse retina (from UniProt P52480 1-531) (enzyme)
